The record followed here is patent US20020137213A1 (published 2002).

Some results are limits rather than exact numbers.

T1: coxsackie adenovirus receptor (CAR), human, on HeLa cells (human, UniProt P78310 20-365)
T1 sequence: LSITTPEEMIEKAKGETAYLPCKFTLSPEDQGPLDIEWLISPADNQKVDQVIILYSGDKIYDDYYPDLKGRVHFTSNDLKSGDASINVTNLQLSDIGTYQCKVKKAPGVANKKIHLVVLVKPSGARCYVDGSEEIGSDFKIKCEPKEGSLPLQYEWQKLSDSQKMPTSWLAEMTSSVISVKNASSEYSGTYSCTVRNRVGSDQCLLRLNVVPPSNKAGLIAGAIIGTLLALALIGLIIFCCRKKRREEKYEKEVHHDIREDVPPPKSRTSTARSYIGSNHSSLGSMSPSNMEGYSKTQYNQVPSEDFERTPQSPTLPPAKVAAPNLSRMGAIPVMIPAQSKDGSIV

B1: KO4+5 mutant Ad5 fiber protein (ΔG509, K510, ΔG538, T539) (other)
chain: MKRARPSEDTFNPVYPYDTETGPPTVPFLTPPFVSPNGFQESPPGVLSLRLSEPLVTSNGMLALKMGNGLSLDEAGNLTSQNVTTVSPPLKKTKSNINLEISAPLTVTSEALTVAAAAPLMVAGNTLTMQSQAPLTVHDSKLSIATQGPLTVSEGKLALQTSGPLTTTDSSTLTITASPPLTTATGSLGIDLKEPIYTQNGKLGLKYGAPLHVTDDLNTLTVATGPGVTINNTSLQTKVTGALGFDSQGNMQLNVAGGLRIDSQNRRLILDVSYPFDAQNQLNLRLGQGPLFINSAHNLDINYNKGLYLFTASNNSKKLEVNLSTAKGLMFDATAIAINAGDGLEFGSPNAPNTNPLKTKIGHGLEFDSNKAMVPKLGTGLSFDSTGAITVGNKNNDKLTLWTTPAPSPNCRLNAEKDAKLTLVLTKCGSQILATVSVLAVKGSLAPISGTVQSAHLIIRFDENGVLLNNSFLDPEYWNFRNGDLTEGTAYTNAVGFMPNLSAYPKSHTAKSNIVSQVYLNGDKTKPVTLTITLNQETGDTTPSAYSMSFSWDWSGHNYINEIFATSSYTFSYIAQE
B2: wildtype Ad5 fiber protein (other)
chain: MKRARPSEDTFNPVYPYDTETGPPTVPFLTPPFVSPNGFQESPPGVLSLRLSEPLVTSNGMLALKMGNGLSLDEAGNLTSQNVTTVSPPLKKTKSNINLEISAPLTVTSEALTVAAAAPLMVAGNTLTMQSQAPLTVHDSKLSIATQGPLTVSEGKLALQTSGPLTTTDSSTLTITASPPLTTATGSLGIDLKEPIYTQNGKLGLKYGAPLHVTDDLNTLTVATGPGVTINNTSLQTKVTGALGFDSQGNMQLNVAGGLRIDSQNRRLILDVSYPFDAQNQLNLRLGQGPLFINSAHNLDINYNKGLYLFTASNNSKKLEVNLSTAKGLMFDATAIAINAGDGLEFGSPNAPNTNPLKTKIGHGLEFDSNKAMVPKLGTGLSFDSTGAITVGNKNNDKLTLWTTPAPSPNCRLNAEKDAKLTLVLTKCGSQILATVSVLAVKGSLAPISGTVQSAHLIIRFDENGVLLNNSFLDPEYWNFRNGDLTEGTAYTNAVGFMPNLSAYPKSHGKTAKSNIVSQVYLNGDKTKPVTLTITLNGTQETGDTTPSAYSMSFSWDWSGHNYINEIFATSSYTFSYIAQE

One assay addresses coxsackie adenovirus receptor (CAR), human, on HeLa cells (human) (UniProt P78310). Description: cell-based or functional assay.
In the case of “KO1 mutant Ad5 fiber protein (S408E, P409A) (from UniProt P11818 1-581)”, the Mean % wt βgal activity, transduction of Hela cells was found to be 1.4 % wt; the Representative avg βgal activity (RLU/ug protein), transduction of Hela cells at 1000 particles per cell (RLU/ug protein) amounted to 7620; the fold reduction of β-galactosidase activity against wildtype fiber, Hela cells turned out to be 70 fold.
On to “KO1+2 mutant Ad5 fiber protein (S408E, P409A, ΔV441, K442) (from UniProt P11818 1-581)”, for which the Mean % wt βgal activity, transduction of Hela cells came out at 0.1 % wt; the Representative avg βgal activity (RLU/ug protein), transduction of Hela cells at 1000 particles per cell (RLU/ug protein) amounted to 472; the fold reduction in fiber-mediated gene transfer, Hela cells worked out at 1000 fold; the fold reduction of β-galactosidase activity against wildtype fiber, Hela cells amounted to 1000 fold.
In the case of “KO2 mutant Ad5 fiber protein (ΔV441, K442) (from UniProt P11818 1-581)”, the Mean % wt βgal activity, transduction of Hela cells was 0.6 % wt; the Representative avg βgal activity (RLU/ug protein), transduction of Hela cells at 1000 particles per cell (RLU/ug protein) came out at 3320; the decrease in transduction efficiency, Hela cells was more than 160 fold; the fold reduction of β-galactosidase activity against wildtype fiber, Hela cells is 167 fold.
The like results for “KO2a mutant Ad5 fiber protein (ΔV441) (from UniProt P11818 1-581)” were, in that order, 0.6 % wt, 4000, more than 160 fold and 167 fold.
In turn, “KO2b mutant Ad5 fiber protein (ΔK442) (from UniProt P11818 1-581)” registered a Mean % wt βgal activity, transduction of Hela cells of 8.3 % wt and a Representative avg βgal activity (RLU/ug protein), transduction of Hela cells at 1000 particles per cell (RLU/ug protein) of 44400.
As to “KO2c mutant Ad5 fiber protein (V441A, K442A) (from UniProt P11818 1-581)”, the Mean % wt βgal activity, transduction of Hela cells came to 8.5 % wt; the Representative avg βgal activity (RLU/ug protein), transduction of Hela cells at 1000 particles per cell (RLU/ug protein) is 53300; the fold reduction in fiber-mediated gene transfer, Hela cells was 12 fold.
The molecule “KO3 mutant Ad5 fiber protein (R460E) (from UniProt P11818 1-581)” came in with a Mean % wt βgal activity, transduction of Hela cells of 63.3 % wt and a Representative avg βgal activity (RLU/ug protein), transduction of Hela cells at 1000 particles per cell (RLU/ug protein) of 359000.
As to “KO4 mutant Ad5 fiber protein (ΔG509, K510) (from UniProt P11818 1-581)”, the Mean % wt βgal activity, transduction of Hela cells amounted to 38.2 % wt and the Representative avg βgal activity (RLU/ug protein), transduction of Hela cells at 1000 particles per cell (RLU/ug protein) is 213000.
The like results for “KO5 mutant Ad5 fiber protein (ΔG538, T539) (from UniProt P11818 1-581)” were, in that order, 58.3 % wt and 331000.
“KO8 mutant Ad5 fiber protein (N464T) (from UniProt P11818 1-581)” displayed a Mean % wt βgal activity, transduction of Hela cells of 92.6 % wt and a Representative avg βgal activity (RLU/ug protein), transduction of Hela cells at 1000 particles per cell (RLU/ug protein) of 470000.
“KO9 mutant Ad5 fiber protein (V466H) (from UniProt P11818 1-581)” returned a Mean % wt βgal activity, transduction of Hela cells of 80.9 % wt and a Representative avg βgal activity (RLU/ug protein), transduction of Hela cells at 1000 particles per cell (RLU/ug protein) of 391000.
For “KO10 mutant Ad5 fiber protein (P505A) (from UniProt P11818 1-581)”, in that order: 79.6 % wt and 447000.
On to “KO11 mutant Ad5 fiber protein (Δ404-581, knob replaced by GCN4 isoleucine 31 amino acid peptide) (from UniProt P11818 1-403)”, for which the Mean % wt βgal activity, transduction of Hela cells stood at 0.8 % wt; the Representative avg βgal activity (RLU/ug protein), transduction of Hela cells at 1000 particles per cell (RLU/ug protein) turned out to be 4520; the fold reduction of β-galactosidase activity against wildtype fiber, Hela cells was found to be 125 fold.

The target in a further assay is T1, coxsackie adenovirus receptor (CAR), …. The experiment in a line: cell-based or functional assay.
Take B1: the “Mean % wt βgal activity, transduction of Hela cells” value was 91.1 % wt.
Take B2: the “Mean % wt βgal activity, transduction of Hela cells” value was found to be 100 % wt.
